The record followed here is US20180162938A1 (GANYMED PHARMACEUTICALS, published 2018).

The target of experiment [1] is T1, human CLDN6 (claudin 6), full length (human, UniProt P56747 1-220).
T1 construct: Expressed untagged from vector p3953 in HEK293T, HEK293 and CHO-K1 cells; endogenous in NEC8 and OV90 cells; In the Western blots it stood in denatured cell lysate; also called wild-type CLDN6
T1 sequence: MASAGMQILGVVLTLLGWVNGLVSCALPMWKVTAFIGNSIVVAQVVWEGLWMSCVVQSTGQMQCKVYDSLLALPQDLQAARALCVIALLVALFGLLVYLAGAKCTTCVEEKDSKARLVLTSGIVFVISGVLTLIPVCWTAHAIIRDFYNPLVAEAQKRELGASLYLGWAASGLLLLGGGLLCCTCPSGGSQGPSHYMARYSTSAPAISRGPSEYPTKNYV
Nature of the experiment: flow cytometry, HEK293T transiently co-transfected with the claudin and a fluorescence reporter; other quadrants printed: Q1 0,09, Q3 75,0…, Q4 24,73. Background: In flow cytometry, cells or beads pass a laser one at a time.

The target in experiment [2] is CLDN6 SNP (single nucleotide polymorphism) variant I143V (human) (UniProt P56747). Nature of the experiment: flow cytometry, HEK293T transiently co-transfected with the claudin and a fluorescence reporter; other quadrants printed: Q1 0,18, Q3 64,8…, Q4 34,5….
Experiment [3] has as its target human CLDN3 (claudin 3) (human) (UniProt O15551). As to the kind of experiment: flow cytometry, HEK293T transiently co-transfected with the claudin and a fluorescence reporter; other quadrants printed: Q1 0,32, Q3 63,10, Q4 36,2….
The target in experiment [4] is human CLDN4 (claudin 4) (human) (UniProt O14493). Nature of the experiment: flow cytometry, HEK293T transiently co-transfected with the claudin and a fluorescence reporter; other quadrants printed: Q1 0,47, Q3 51,89, Q4 46,45.
human CLDN4 (claudin 4) (human), sequence (O14493 whole entry): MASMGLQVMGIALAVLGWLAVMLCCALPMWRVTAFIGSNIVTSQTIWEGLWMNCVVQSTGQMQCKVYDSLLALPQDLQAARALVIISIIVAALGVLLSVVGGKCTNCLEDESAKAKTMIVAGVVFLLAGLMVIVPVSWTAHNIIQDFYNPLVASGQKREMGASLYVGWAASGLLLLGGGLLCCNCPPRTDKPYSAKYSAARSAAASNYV
In experiment [5] the target is human CLDN9 (claudin 9) (human) (UniProt O95484). Nature of the experiment: flow cytometry, HEK293T transiently co-transfected with the claudin and a fluorescence reporter; other quadrants printed: Q1 0,65, Q3 53,91, Q4 44,03.
human CLDN9 (claudin 9) (human), sequence (O95484 whole entry): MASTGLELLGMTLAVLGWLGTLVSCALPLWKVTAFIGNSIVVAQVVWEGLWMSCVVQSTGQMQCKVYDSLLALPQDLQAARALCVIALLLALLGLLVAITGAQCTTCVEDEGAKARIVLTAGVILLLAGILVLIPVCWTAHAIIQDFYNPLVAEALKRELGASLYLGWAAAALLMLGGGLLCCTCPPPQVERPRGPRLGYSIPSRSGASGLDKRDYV
In experiment [6] the target is human CLDN3 (claudin 3) (human) (UniProt O15551). Nature of the experiment: flow cytometry, HEK293T transiently co-transfected with the claudin and a fluorescence reporter; positive control, by the legend MAB4620; other quadrants printed: Q1 37,91, Q3 29,94, Q4 0,76.
human CLDN3 (claudin 3) (human), sequence (O15551 whole entry): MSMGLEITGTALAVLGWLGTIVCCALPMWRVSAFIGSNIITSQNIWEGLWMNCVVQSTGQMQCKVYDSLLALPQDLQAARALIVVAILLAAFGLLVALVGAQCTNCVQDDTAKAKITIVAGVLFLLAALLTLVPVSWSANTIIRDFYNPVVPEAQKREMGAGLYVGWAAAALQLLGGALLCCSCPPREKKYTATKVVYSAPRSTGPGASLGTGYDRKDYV
The target of experiment [7] is CLDN6 SNP (single nucleotide polymorphism) variant I143V (human) (UniProt P56747). Nature of the experiment: flow cytometry, HEK293T transiently co-transfected with the claudin and a fluorescence reporter; positive control, by the legend MAB3656; other quadrants printed: Q1 47,20, Q3 20,26, Q4 0,33.
The target of experiment [8] is T1, human CLDN6 (claudin 6), full length. As to the kind of experiment: flow cytometry, HEK293T transiently co-transfected with the claudin and a fluorescence reporter; positive control, by the legend MAB3656; other quadrants printed: Q1 58,39, Q3 18,6…, Q4 0,13.
The target is the same in experiment [9]. Nature of the experiment: flow cytometry saturation binding (median fluorescence), HEK293 cells stably expressing human CLDN6.

Turning to Isotype (antibody), the percent of events in Q2 (reporter-positive, antibody-positive) in [1] is 0.12; in [2] it was 0.44; in [3], 0.37; in [4], 1.18; in experiment [5] it was 1.42.
In [6], “mouse anti-CLDN3 IgG2a (R&D Systems, MAB4620) (antibody)” had a percent of events in Q2 (reporter-positive, antibody-positive) of 31.4.
Regarding “mouse anti-CLDN6 IgG2b (R&D Systems, MAB3656) (antibody)”, the percent of events in Q2 (reporter-positive, antibody-positive) in experiment [7] amounted to 32.2; in [8], 22.8.

B1: murine monoclonal antibody muMAB 67A (antibody, V domains shown)
VH: EVQLQQSGPELVKPGASMKISCKASGYSFTGYTMNWVKQSHGKNLEWIGLINPYNGGIIYNQKFKGKATLTVDKSSSTAYMELLSLTSEDSAVFYCARDFGYVLDYWGQGTTLTVSS
VL: QIVLTQSPAIMSASPGEKVTITCSASSSVSYMHWFQQKPGTSPKLWIYSTSNLASGVPARFSGSGSGTSYSLTISRVAAEDAATYYCQQRSTYPPWTFGGGTKLEIK
In general, EC50 (read off the curve) refers to the concentration that produces a half-maximal response. A high value points to lower potency in that assay. Regarding B1, the “EC50 (read off the curve)” value in [9] was ~0.4 µg/mL.
